Measured values as given in publication PMC5025653.

Molecular target: C-terminal region of IbOr (IbOr-C), recombinant (sweetpotato (Ipomoea batatas))
Experiment: native gel or EMSA; 10% native PAGE gel, silver-stained; recombinant IbOr and truncated fragments

stoichiometry N: 3
Substance: C-terminal region of IbOr (IbOr-C), recombinant (domain or fragment)
